Data on three molecules can be found in patent US20170089914A1 (Merck Sharp & Dohme, published 2017).

First the molecules themselves.
B1: A30633 Fab antibody (Fab-SASA secreted to culture medium) (Fab, V domains shown)
VH: QSLEESGGRLVTPGTPLTLTCTVSGFSLSTNDMNWVRQAPGKGLEWIGVIYSDDTPDYATWAKGRFTISRTSTTVDLKITSPTTEDTATYFCARGHYDSAVYAYALNIWGPGTLVTVSS
VL: ELVMTQTPSSVSAAVGGTVTITCQASQSLSNLLAWYQQKPGQPPKLLIYGASNLESGVPSRFRGSGSGTDFTLTISGMKAEDAATYYCQGGHYSGLTFGNGTNVEIK
notes: Rabbit variable domains from a Fab phage library; Tested as Fab-SASA expressed from the pFASEBA vector and captured on BSA via SASA
B2: A30514 Fab antibody (Fab-SASA secreted to culture medium) (Fab, V domains shown)
VH: QEQLVESGGRLVTPGTPLTLTCTASGFSLGSDFMSWVRQAPGKGLEWIGYIDPRSDIPYYASWAKGRFTISKTSTTVDLKITSPTTEDTATYFCARDLNAGYFNGIFYIWGPGTLVTVSS
VL: ELVMTQTPSSVSAAVGDTVTINCQASETVATLLAWYQQKPGQPPKLLIYGASNLESGVPSRFRGSGSGTEFTLTISGMKAEDAATYYCQYGYISTGSNTFGAGTNVEIK
notes: as for B1
B3: A30523 Fab antibody (Fab-SASA secreted to culture medium) (Fab, V domains shown)
VH: QEQLVESGGRLVTPGTPLTLTCTASGFSLGSDFMSWVRQAPGKGLEWIGYIDPRSDIPYYASWAKGRFTISKTSTTVDLKITSPTTEDTATYFCARDLNAGYFNGIFYIWGPGTLVTVSS
VL: ELDMTQTPSSTSEPVGGTVTINCQASQTISSYLSWYQQKPGHPPKLLIYDASDLASGVPSRFSGSRSGTQFTLTISGVQCDDAATYYCLGVYDYRSDDGAAFGGGTELEIL
notes: as for B1

In this experiment the target is pembrolizumab F(ab')2 protein. Put plainly: SPR (BIAcore T200), Fab-SASA captured on BSA chip, pembrolizumab F(ab')2 as analyte, 1:1 fit. In general terms: SPR reads the build-up and loss of mass on a sensor chip optically.
Sequence of pembrolizumab F(ab')2 protein (chain, as listed by the source, chain 1 of 2): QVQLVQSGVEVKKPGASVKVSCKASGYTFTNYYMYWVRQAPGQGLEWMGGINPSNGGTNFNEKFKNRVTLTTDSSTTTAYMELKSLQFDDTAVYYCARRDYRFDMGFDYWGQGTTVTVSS
Sequence of pembrolizumab F(ab')2 protein (chain, as listed by the source, chain 2 of 2): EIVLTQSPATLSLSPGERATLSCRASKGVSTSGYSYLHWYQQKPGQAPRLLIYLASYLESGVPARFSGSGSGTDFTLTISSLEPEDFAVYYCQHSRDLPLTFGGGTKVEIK
As usually defined, the koff is the first-order rate constant of dissociation. For B1, the koff turned out to be 0.0012 s⁻¹.
Consider B2, for which the koff worked out at 6.5e-05 s⁻¹.
In turn, B3 gave a koff of 0.00034 s⁻¹.
